The values below come from patent US20090022659A1 (ALDERBIO, published 2009).

The target in test [1] is T1, Tumor Necrosis Factor-alpha (TNF-α), R&D systems 210-TA / 210-TA-CF (human, UniProt P01375 77-233).
T1 construct: Bought protein; also called huTNF-α
Kind of test: biolayer interferometry (Octet QK); biotinylated TNF-α on streptavidin sensor, antibody 8 nM to 1 nM. Here is the method: Binding kinetics of certain Anti-TNF-α antibodies referenced in this experiment were determined using biolayer Interferometry on an Octet QK instrument (ForteBio, Menlo Park, Calif.). Biotinylated TNF-α (R&D systems part number 210-TA, biotinylated using Pierce EZ-link sulfo-NHS-LC-LC-biotin product number 21338 according to manufacturer's protocols) was initially bound onto a streptavidin coated biosensor (ForteBio, Menlo Park, Calif. part number 18-5006). TNF-α coated sensors were then incubated with the Anti-TNF-α antibodies at concentrations ranging from 8 nM to 1 nM. Binding was monitored as an increase in signal over a period of 900 seconds.
Sensors removed from the antibody dilutions and immediately incubated in diluent were monitored for a dissociation phase over an 1800 second time period. For these studies, all proteins were diluted using ForteBio's sample diluent buffer (ForteBio, Menlo Park, Calif. part number 18-5028). Analysis of Kinetic data was performed using ForteBio Software utilizing full dissociation modeling.

Test [2] addresses T1, Tumor Necrosis Factor-alpha (TNF-α), …. The experiment in a line: OD versus antibody concentration, fitted sigmoid; the assay is not named for this figure (legend: binding affinity of the anti-TNF-α antibody Ab1); the unit is that of the concentration axis, none stands beside the number.
The target is the same in test [3]. Kind of test: OD versus antibody concentration; the assay is not named for this figure (legend: binding affinity of the anti-TNF-α antibody Ab1).
Test [4] has the same target. The experiment in a line: cell-based or functional assay.

T1 sequence (P01375 77-233 limits assumed): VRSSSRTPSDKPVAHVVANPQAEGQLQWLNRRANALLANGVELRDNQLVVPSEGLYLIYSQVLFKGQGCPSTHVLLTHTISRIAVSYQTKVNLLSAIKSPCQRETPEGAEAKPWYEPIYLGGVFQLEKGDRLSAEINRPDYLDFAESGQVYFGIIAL

B1: anti-TNF-α antibody Ab9 (antibody, V domains shown)
VH: QSVEESGGRLVTPGTPLTLTCTVSGFSLSIYWMTWVRQAPGKGLEWIGVISTDGSAYYATWAKGRFTISKTSSTTVDLRITSPTTEDTATYFCAGGGGMDP
VL: AQVLTQTPSSVSAAVGGTVTVSCQSSQNVYNNNDFVWFQQKPGQPPKRLIYWASTLASGVPSRFKGSGSGTQFTLTINDLECDDAATYYCAGAYITELRT
Take B1: the Kd (usually the constant that tells how readily two partners part at equilibrium) in test [1] was in the range of 0.025 to 0.05 nM.

B2: anti-TNF-α antibody Ab5 (antibody, V domains shown)
VH: QSVEESGGRLVTPGTPLTLTCAVSGFSLSVYWMTWVRQAPGKGLEWIGTISTDGITVYATWAKGRFTISKTSSTAVDLKLTSPTTEDTATYFCAGGGGMDP
VL: MDTRAPTQLLGLLLLWLPGATLAQVVTQTPASVSAAVGGTVTISCQSSQNVYNNNDLVWFQQKPGQPPKRLVYWASTLASGVSSRFRGSGSGTQFILTISDLQCDDAATYYCAGAYDSEIRA
The molecule B2 displayed a dissociation constant (Kd) in test [1] of 0.025 to 0.05 nM.

B3: anti-TNF-α antibody Ab10 (antibody, V domains shown)
VH: QSVEESGGRLVTPGTPLTLTCTVSGFSLSIYWMTWVRQAPGRGLEWIGVISTDGTTYYANWAKGRFTISKASSTTVDLRITSPTTEDTATYFCAGGGGMDP
VL: AQVLTQTASSVSAAVGGTVTISCQSSQSVYNNNDFIWFQQKPGQPPKRLIYWASTLASGVSSRFKGSGSGTQFTLTINDLECDDAAVYYCAGAYDSEVRA
B3 displayed a Kd in test [1] of 0.015 to 0.03 nM.

B4: anti-TNF-α antibody Ab11 (antibody, V domains shown)
VH: QSVEESGGRLVTPGTPLTLTCTVSGFSLSIYWMTWVRQAPGKGLEWIGVIASDGSTYYASWAKGRFTISKASSTTVDLKIASPTIEDTATYFCAGGGGMDP
VL: AQVMTQTPASVSAAVGGTVTISCQSSESVYNNNDLIWFRQKPGQPPKRLIYWASQLASGVSSRFKGSGSGTQFTLTINDLECDDAATYYCAGAYDSEIRA
As for B4, binding in test [1] was characterised by a dissociation constant (Kd) of 0.02 nM.

B5: anti-TNF-α antibody Ab12 (antibody, V domains shown)
VH: QSVEESGGRLVTPGTPLTLTCTVSGFSLSHYAMGWVRQAPGKGLEWIGIISSNGVTYYATWASGRFTISKTSTTVDLKITSPTTEDTATYFCARGDDTSIIYYIYAFDL
VL: ALVMTQTPSPVSAAVGGTVTISCQSSESVVFNNRLSWYQQKPGQPPKLLIYWASTLASGVPSRFKGSGSGTQFTLTISGVECDDAATYYCAGYKSYSNDDFA
B5 came in with a Kd in test [1] of 0.01 to 0.025 nM.

B6: anti-TNF-α antibody Ab13 (antibody, V domains shown)
VH: QSVEESGGRLVTPGTPLTLTCTVSGIDLSSYAMGWVRQAPGKGLEYIGYILSSGITYYASWARGRFTISKTSSTTVDLKMTSLTTEDTATYFCARNGNYNSGTDI
VL: ADIVMTQTPASVSEPVGGTVTIKCQASQNIYSTLAWYQQKPGQPPKLLIYLASTLASGVPSRFKGSGSGTQFTLTISDLECADAATYYCQTSHGSNSDSFGYA
For B6, the Kd in test [1] is 0.01 to 0.05 nM.

B7: anti-TNF-α antibody Ab17 (antibody, V domains shown)
VH: QSLEESGGRLVTPGGSLTLTCTVSGIDLSSYAMGWVRQAPGKGLEYIGYVLGSGITYYASWARGRFTISKTSSTTVDLKMTSLTTEDTATYFCVRNDNYNSGTDI
VL: ADIVMTQTPASVSEPVGGTVTIKCQASQSIYSTLAWYQQKPGQPPKLLISLASTLASGVPSRFKGSGSGTQFTLTISDLECADAATYYCQTNHGSNSDSFGYA
In test [1], B7 registered a Kd of 0.01 nM.

B8: anti-TNF-α antibody Ab14 (antibody, V domains shown)
VH: QSVEESGGRLVTPGTPLTLTCTVSGFSLSSYAMGWVRQAPGKGLEYIGYIGSSGITYYTSWARGRFTISKPSSTTVDLKMTSLTTEDTATYFCARNGNYNSGTDI
VL: ADIVMTQTPASVSEPVGGTVTIKCQASQNIYSTLAWYQQKPGQPPKLLIYLASTLASGVPSRFKGSGSGTQFTLTISDLECADAATYYCQTNHGSNSDSFGYA
On to B8, for which binding in test [1] was put at a Kd of 0.01 nM.

B9: anti-TNF-α antibody Ab18 (antibody, V domains shown)
VH: QSVEESGGRLVTPGTPLTLTCTVSGIDLSSYAMGWVRQAPGKGLEYIGYILSSGITYYASWARGRFTISKTSSTTVDLKMTSLTTEDTATYFCVRNGNYNVGTDI
VL: ADIVMTQTPASVSEPVGGTVTIKCQASQNIYSTLAWYQQKPGQPPKLLIYLASTLESGVPSRFKGSGSGTEFTLTISDLECADAATYYCQTSHGSNSESFGYA
In test [1], B9 yielded a Kd of 0.01 nM.

B10: anti-TNF-α antibody Ab15 (antibody, V domains shown)
VH: QSVEESGGRLVSPGTPLTLTCTVSGIDLSSYGMGWVRQAPGKGLEYIGYMIASGITYYAAWAKGRFTISKTSSTTVDLKITSPTTEDTATYFCARNYYGMDP
VL: ADIVMTQTPASVSEPVGGTVTIKCQASQSIYSSFSWYQQIPGQRPKLLIYYASTLASGVPSRFSGSGSGTDFTLTISDLECADAATYYCQSNHGSNGDSFGNA
In turn, B10 came in with a Kd in test [1] of 0.01 nM.

B11: anti-TNF-α antibody Ab1 (antibody, V domains shown)
VH: QSVEESGGRLVTPGTPLTLTCTVSGFSLSTYNMGWVRQAPGKGLEYIGYVLGSGITYYASWAKGRFTISKTSTTVDLEITSPTTEDTATYFCARDAGGRASL
VL: ADIVMTQTPASVEAAVGGTVTIKCQASQNIRSWLAWYQQKPGQPPKLLIYGASTLASGVPSRFQGSGSGTEYTLTIIDLDCADAATYYCQSNYGSNDNSYGNG
notes: Rabbit-derived; they start with the leader peptide and end at CDR3 (no framework 4); no cleavage site is stated for this antibody
Turning to B11, the EC50 – broadly, the concentration giving half of the maximal effect – in test [2] was 0.0461 µg/mL. Further, the EC50 (read off the curve) (in general, the concentration at which the effect is half-maximal) in test [3] is about 0.05 µg/mL. Moreover, the “EC50 (read off the curve); OD versus antibody concentration (the assay is not named for this figure)” value in test [4] was about 0.0006 µg/mL. The Kd in test [1] came to 0.01 nM.

B12: anti-TNF-α antibody Ab7 (antibody, V domains shown)
VH: QSVEESGGRLVTPGTPLTLTCTVSGFSLSSDNMGWVRQAPGKGLEYIGYITYGGFTYYATWAKGRFTISKTSTTVDLKMTSPTTEDTATYFCAREAGGRANV
VL: ADIVMTQTPASVEAAVGGTVTINCQASQSIVSWLAWYQQKPGQPPKLLIYGASTLASGVPSRFKGSGSGTEYTLTISDLECADAATYYCQSNYGSNSHSFGNT
B12 came in with a Kd in test [1] of 0.01 nM.

B13: anti-TNF-α antibody Ab2 (antibody, V domains shown)
VH: QSVEESGGRLVTPGTPLTLTCSVSGFSLNNYVMGWVRQAPGKGLEFIGYIAFGIGPYYASWAKGRFTISSTSSTTVDLKMTSLTPEDTATYFCARGDYSGNDI
VL: ADIVMTQTPSSVSEPVRGTVTIKCQASQNIYSYLSWYQQSPGQPPKLLIYKASTLASGVPSRFKGSGSGTDFTLTISDLECADAATYYCQSNYGSDSDSFGNA
On to B13, for which the affinity in test [1], expressed as Kd, was 0.01 nM.

B14: anti-TNF-α antibody Ab16 (antibody, V domains shown)
VH: QSLEESGGRLVKPDETLTITCTVSGIDLNNYNMGWVRQAPGKGLEYIGYILGSGITYYATWAKGRFTISKTSSTTVDLKMTSLTTEDTATYFCAGSIYYRGYGMDP
VL: ADIVMTQTPASVSEPVGGTVTIKCQASQTIYSSLSWYQQKPGQRPKLLIYAASTLASGVPSRFKGSGSGTDFTLTISDLECADAATYYCQSNHGSNSDSYGNA
B14 showed a Kd in test [1] of 0.01 nM.

B15: anti-TNF-α antibody Ab8 (antibody, V domains shown)
VH: QSVEESGGRLVTPGTPLTLTCTASGFSLSNYVMGWVRQAPGKGLEFIGYIAFGIGPYYATWAKGRFSISSTSSTTVDLTMTSLTPEDTATYFCARGDYSGNNI
VL: ADIVMTQTPSSVSEPVGGTVTIMCQASQNIYSYLSWYQQKPGQPPKLLIYKASTLASGVPSRFAGSGSGTDFTLTISDLECADAATYYCQSNYGSNSDSFGNA
Consider B15, for which binding in test [1] was characterised by a dissociation constant (Kd) of 0.01 nM.

B16: anti-TNF-α antibody Ab19 (antibody, V domains shown)
VH: QSVEESGGRLVTPGTPLTLTCSVSGFSLNNYIMGWVRQAPGKGLEFIGYIAFGIGPYYASWAKGRFTSSSTSSTTVDLKMTSLTPEDTATYFCARGDVSGNDI
VL: ADIVMTQTPSSVSEPVRGTVTIKCQASQNIYSYLSWYRQSPGQPPNLLIYKASTLASGVPSRFKGSGSGTDFTLTISDLECADAATYYCQSNYGSNSDSFGNA
B16 gave a Kd in test [1] of 0.06 nM.

B17: anti-TNF-α antibody Ab3 (antibody, V domains shown)
VH: QSVEESGGRLVTPGTPLTLTCKVSGFSLSSYDMTWVRQAPGKGLEWIGYIWNDGSTAYASWATGRFTISKTSTTVDLKIASPTTEDTATYFCARGPVFATTLGYYFTI
VL: MDTRAPTQLLGLLLLWLPGSTFAIKVTQTPASVSAAVGGTVSINCQASEDIESYLAWYQQKPGQPPKLLLYDASALASGVPSRFKGSGSGTEYTLTISGVECADAATYYCQQGYSYSNVDNS
In test [1], B17 yielded a Kd of 0.02 to 0.04 nM.

B18: anti-TNF-α antibody Ab6 (antibody, V domains shown)
VH: METGLRWLLLVAVFKGVQCQSVEESGGRLVTPGTPLTLTCTVSGFSLSSNTISWVRQAPGKGLEWIGYIWRGVSTYYATWAKGRFTISKTSSTTVDLKITGPTTEDTATYFCARDAGDGGGYSLDL
VL: MDTRAPTQLLGLLLLWLPDARCAYDMTQTPASVEVAGGGTVTIKCQASQSIANRLAWYQQKPGQPPKLLIYYASTLASGVPSRFSGSGSGTEFTLTISGVQCDDAATYYCQQTYSDNNVDNA
B18 displayed a Kd in test [1] of 0.01 nM.

B19: anti-TNF-α antibody Ab4 (antibody, V domains shown)
VH: QSVEESGGRLVTPGTPLTLTCTVSGLSLSTETINWVRQAPGKGLEWIGYIDSSGGTGYANWARGRFTISKTSTTVDLKITSPTTGDTATYFCARGTITTGMNI
VL: MDTRAPTQLLGLLLLWLTGATFAAVLTQTPSPVSAVVGGTVSISCQSSKRVVNSVALSWYQQKPGRSPKLLIYFASKLASGVPSRFKGSGSGTQFTLAISDVQCDDAATYYCAGHYTDSGDDA
As to B19, in test [1], the Kd turned out to be 0.01 nM.
